The record followed here is article PMC12051786, “Photoisomerization of Azobenzene‐Extended Charybdotoxin for the Optical Control of Kv1.2 Potassium Channel Activity” (Angewandte Chemie (International Ed. in English), 2025).

A short description of series [1]: Photo-isomerization kinetics (trans/cis) followed by absorbance under illumination. In kind it is physicochemical. As to conditions: 9.5 mW cm−2, 100% DMSO. The text has this: Next, we evaluated for all monomers and dimers the trans‐cis isomerization reactions under various wavelengths of illumination. Illuminating the ChTx‐Ah^14‐Az1 monomer at λ = 365 nm at 9.5 mW cm^−2, to favor the cis configuration, yielded a significant time‐dependent change in the absorbance properties of the peptide, characterized by a decrease of the absorbance band maximum centered at 340 nm (Figure 4a).

Series [2] in a line: Thermal stability of the cis isomer in the dark. As to conditions: Figure S3.
Series [3] deals with mouse Kv1.2 channel (mouse) (UniProt P63141).
Chain of mouse Kv1.2 channel (mouse) (P63141 whole entry): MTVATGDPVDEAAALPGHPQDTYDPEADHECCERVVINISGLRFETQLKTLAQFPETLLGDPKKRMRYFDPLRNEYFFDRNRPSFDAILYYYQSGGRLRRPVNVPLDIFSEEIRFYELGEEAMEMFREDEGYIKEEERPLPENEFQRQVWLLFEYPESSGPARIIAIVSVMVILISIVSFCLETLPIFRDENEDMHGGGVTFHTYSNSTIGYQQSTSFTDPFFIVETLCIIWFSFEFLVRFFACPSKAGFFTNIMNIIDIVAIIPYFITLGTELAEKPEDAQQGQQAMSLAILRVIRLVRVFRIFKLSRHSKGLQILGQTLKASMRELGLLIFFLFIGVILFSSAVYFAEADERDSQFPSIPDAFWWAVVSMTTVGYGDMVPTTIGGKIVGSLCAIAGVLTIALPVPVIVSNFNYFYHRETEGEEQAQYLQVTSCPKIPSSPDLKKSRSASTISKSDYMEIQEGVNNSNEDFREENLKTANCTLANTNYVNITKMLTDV
Series [4] shares this target. The source holds these as a separate data set.

Chain of charybdotoxin (P13487 23-59): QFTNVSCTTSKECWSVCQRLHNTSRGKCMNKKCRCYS
Chain of ChTx‐Ah^9 (P13487 whole entry, looked up): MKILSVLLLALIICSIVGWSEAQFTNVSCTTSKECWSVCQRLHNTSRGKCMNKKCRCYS
Chain of ChTx‐Ah^12 (P13487 whole entry, looked up): as above

Regarding `C#CCNC(=O)c1ccc(/N=N/c2ccc(C(=O)NCC#C)cc2)cc1` [Az1, (E)‐4,4′‐(diazene‐1,2‐diyl)bis(N‐(prop‐2‐yn‐1‐yl)benzamide)], in series [1] (irradiation at 340 nm), the “Time at which formation of the cis isomer saturates” value worked out at 300 s. The “Time for recovery of trans-enriched compound on reverse-switching” value in series [1] (irradiation at 435 nm) was “≈ 60 s”. In series [2], the “Thermal stability of the cis isomer” value is “remarkably stable”.
“ChTx‐Ah^9 (from UniProt P13487 23-59) (peptide)” yielded an IC50 of inhibition of K+ current, L929 cells stably overexpressing mouse Kv1.2, automated patch-clamp in series [3] of 6.3 nM.
Compound “ChTx‐Ah^12 (from UniProt P13487 23-59) (peptide)” came in with an IC50 of inhibition of K+ current, L929 cells stably overexpressing mouse Kv1.2, automated patch-clamp in series [3] of 1.2 nM.
In series [3], “ChTx‐Ah^14 (from UniProt P13487 23-59) (peptide)” returned an IC50 of inhibition of K+ current, L929 cells stably overexpressing mouse Kv1.2, automated patch-clamp of 9.8 nM. The percent block of Kv1.2 current at 10 nM peptide, patch-clamp in series [4] turned out to be 52%.
The compound “ChTx‐Ah^19 (from UniProt P13487 23-59) (peptide)” had an IC50 of inhibition of K+ current, L929 cells stably overexpressing mouse Kv1.2, automated patch-clamp in series [3] of 11.5 nM.
As to “charybdotoxin (from UniProt P13487 23-59) (peptide)”, in series [3], the IC50 of inhibition of K+ current, L929 cells stably overexpressing mouse Kv1.2, automated patch-clamp was 5 nM. Further, the percent block of Kv1.2 current at 10 nM peptide, patch-clamp in series [4] was 62.2%.
